From US20160030510

Tested on: T1, MKI-EGFP fusion protein
T1 sequence: FPLKRHDKVDDLSK

| Substance | phosphorylation of acetyl-CoA carboxylase (ACC) by AMPK in rat hippocampal neurons, pACC (Ser79) antibody | phosphorylation of endogenous tau at the 12E8 sites in rat hippocampal neurons, Western blot | phosphorylation of transfected HA-tagged human tau at the 12E8 sites in rat hippocampal neurons, immunostaining |
| --- | --- | --- | --- |
| AMP-activated kinase (AMPK) | MKI-EGFP did not affect the phosphorylation of acetyl-CoA carboxylase (ACC) by AMP-activated kinase (AMPK) |  |  |
| MARK4 (PAR-1/MARK kinases) acting on tau in rat hippocampal neurons |  | expression of an MKI-GFP fusion protein in rat hippocampal neurons effectively attenuated MARK4-mediated phosphorylation of both endogenous tau (FIG. 3A) and transfected human tau at the 12E8 sites (FIG. 3B) | expression of an MKI-GFP fusion protein in rat hippocampal neurons effectively attenuated MARK4-mediated phosphorylation of both endogenous tau (FIG. 3A) and transfected human tau at the 12E8 sites (FIG. 3B) |
